In US20100260668A1 (published 2010):

Molecular target: VEGF (VEGF 1-165 aa, R&D Systems 293-VE-010) (UniProt P15692 27-191)
Assay: Direct bind ELISA, VEGF coated on plate;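 note: ELISA screening of antibodies for binding to the plate-coated target antigen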
Procedure: Enzyme Linked Immunosorbent Assays to screen for antibodies that bind a desired target antigen were performed as follows. […] Plates were washed four times with PBS containing 0.02% Tween 20. Plates were blocked by the addition of 300 μL/well blocking solution (non-fat dry milk powder, various retail suppliers, diluted to 2% in PBS) for ½ hour at room temperature. Plates were washed four times after blocking with PBS containing 0.02% Tween 20.
Plates were washed 4 times with PBS containing 0.02% Tween 20.

VEGF (VEGF 1-165 aa, R&D Systems 293-VE-010), sequence (P15692 other isoform, or with tags, fused parts or gaps limits assumed): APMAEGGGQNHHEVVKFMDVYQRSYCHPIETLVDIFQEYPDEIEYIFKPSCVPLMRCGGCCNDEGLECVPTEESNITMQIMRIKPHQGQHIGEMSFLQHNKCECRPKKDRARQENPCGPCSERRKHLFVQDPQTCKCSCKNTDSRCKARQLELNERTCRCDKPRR

Binder | EC50
DVD452 (bispecific antibody, IgG1, DVD-Ig, outer AB071 / inner AB069; HC linker long, LC linker long; also called DVD452H; DVD452L) VH: EVQLVESGGGLVQPGGSLRLSCAASGFTINASWIHWVRQAPGKGLEWVGAIYPYSGYTNYADSVKGRFTISADTSKNTAYLQMNSLRAEDTAVYYCARWGHSTSPWAMDYWGQGTLVTVSSASTKGPSVFPLAPQVQLVQSGAEVKKPGASVKISCKASGYSFTAYYIHWVKQAPGQGLEWIGYISSYNGATNYNQKFKGRVTFTTDTSTSTAYMELRSLRSDDTAVYYCARDYDYDVGMDYWGQGTLVTVSS VL: DIQMTQSPSSLSASVGDRVTITCRASQVIRRSLAWYQQKPGKAPKLLIYAASNLASGVPSRFSGSGSGTDFTLTISSLQPEDFATYYCQQSNTSPLTFGQGTKVEIKRTVAAPSVFIFPPDIVMTQSPDSLAVSLGERATISCRASESVDNYGISFMKWFQQKPGQPPKLLIYAASNQGSGVPDRFSGSGSGTDFTLTISSLQAEDVAVYYCQQSKEVPWTFGGGTKVEIKR | 17.8 nM
DVD477 (bispecific antibody, IgG1, HC linker long, LC linker short; also called DVD477H; DVD477L) VH: EVQLVESGGGLVQPGGSLRLSCAASGFTFTDNWISWVRQAPGKGLEWVGYISPNSGFTYYADSVKGRFTISADTSKNTAYLQMNSLRAEDTAVYYCARDNFGGYFDYWGQGTLVTVSSASTKGPSVFPLAPEVQLVESGGGLVQPGGSLRLSCAASGFTISDYWIHWVRQAPGKGLEWVAGITPAGGYTYYADSVKGRFTISADTSKNTAYLQMNSLRAEDTAVYYCARFVFFLPYAMDYWGQGTLVTVSS VL: DIQMTQSPSSLSASVGDRVTITCRASQDVSTAVAWYQQKPGKAPKLLIYSASFLYSGVPSRFSGSGSGTDFTLTISSLQPEDFATTYYCQQSYTGTVTFGQGTKVEIKRTVAAPDIQMTQSPSSLSASVGDRVTITCRASQDVSTAVAWYQQKPGKAPKLLIYSASFLYSGVPSRFSGSGSGTDFTLTISSLQPEDFATYYCQQSYTTPPTFGQGTKVEIKR | 41.7 nM
DVD483 (bispecific antibody, IgG1, HC linker short, LC linker long; also called DVD483H; DVD483L) VH: EVQLVESGGGLVQPGGSLRLSCAASGFTFTDNWISWVRQAPGKGLEWVGYISPNSGFTYYADSVKGRFTISADTSKNTAYLQMNSLRAEDTAVYYCARDNFGGYFDYWGQGTLVTVSSASTKGPEVQLVESGGGLVQPGGSLRLSCAASGFTISDYWIHWVRQAPGKGLEWVAGITPAGGYTYYADSVKGRFTISADTSKNTAYLQMNSLRAEDTAVYYCARFVFFLPYAMDYWGQGTLVTVSS VL: DIQMTQSPSSLSASVGDRVTITCRASQDVSTAVAWYQQKPGKAPKLLIYSASFLYSGVPSRFSGSGSGTDFTLTISSLQPEDFATTYYCQQSYTGTVTFGQGTKVEIKRTVAAPSVFIFPPDIQMTQSPSSLSASVGDRVTITCRASQDVSTAVAWYQQKPGKAPKLLIYSASFLYSGVPSRFSGSGSGTDFTLTISSLQPEDFATYYCQQSYTTPPTFGQGTKVEIKR | 46.1 nM
DVD445 (bispecific antibody, IgG1, DVD-Ig, outer AB069 / inner AB071; HC linker short, LC linker short; also called DVD445H; DVD445L) VH: QVQLVQSGAEVKKPGASVKISCKASGYSFTAYYIHWVKQAPGQGLEWIGYISSYNGATNYNQKFKGRVTFTTDTSTSTAYMELRSLRSDDTAVYYCARDYDYDVGMDYWGQGTLVTVSSASTKGPEVQLVESGGGLVQPGGSLRLSCAASGFTINASWIHWVRQAPGKGLEWVGAIYPYSGYTNYADSVKGRFTISADTSKNTAYLQMNSLRAEDTAVYYCARWGHSTSPWAMDYWGQGTLVTVSS VL: DIVMTQSPDSLAVSLGERATISCRASESVDNYGISFMKWFQQKPGQPPKLLIYAASNQGSGVPDRFSGSGSGTDFTLTISSLQAEDVAVYYCQQSKEVPWTFGGGTKVEIKRTVAAPDIQMTQSPSSLSASVGDRVTITCRASQVIRRSLAWYQQKPGKAPKLLIYAASNLASGVPSRFSGSGSGTDFTLTISSLQPEDFATYYCQQSNTSPLTFGQGTKVEIKR | 14500 nM
DVD457 (bispecific antibody, IgG1, DVD-Ig, outer AB069 / inner AB071; HC linker long, LC linker short; also called DVD457H; DVD457L) VH: QVQLVQSGAEVKKPGASVKISCKASGYSFTAYYIHWVKQAPGQGLEWIGYISSYNGATNYNQKFKGRVTFTTDTSTSTAYMELRSLRSDDTAVYYCARDYDYDVGMDYWGQGTLVTVSSASTKGPSVFPLAPEVQLVESGGGLVQPGGSLRLSCAASGFTINASWIHWVRQAPGKGLEWVGAIYPYSGYTNYADSVKGRFTISADTSKNTAYLQMNSLRAEDTAVYYCARWGHSTSPWAMDYWGQGTLVTVSS VL: DIVMTQSPDSLAVSLGERATISCRASESVDNYGISFMKWFQQKPGQPPKLLIYAASNQGSGVPDRFSGSGSGTDFTLTISSLQAEDVAVYYCQQSKEVPWTFGGGTKVEIKRTVAAPDIQMTQSPSSLSASVGDRVTITCRASQVIRRSLAWYQQKPGKAPKLLIYAASNLASGVPSRFSGSGSGTDFTLTISSLQPEDFATYYCQQSNTSPLTFGQGTKVEIKR | 1480 nM
DVD478 (bispecific antibody, IgG1, HC linker long, LC linker short; also called DVD478H; DVD478L) VH: EVQLVESGGGLVQPGGSLRLSCAASGFTISDYWIHWVRQAPGKGLEWVAGITPAGGYTYYADSVKGRFTISADTSKNTAYLQMNSLRAEDTAVYYCARFVFFLPYAMDYWGQGTLVTVSSASTKGPSVFPLAPEVQLVESGGGLVQPGGSLRLSCAASGFTFTDNWISWVRQAPGKGLEWVGYISPNSGFTYYADSVKGRFTISADTSKNTAYLQMNSLRAEDTAVYYCARDNFGGYFDYWGQGTLVTVSS VL: DIQMTQSPSSLSASVGDRVTITCRASQDVSTAVAWYQQKPGKAPKLLIYSASFLYSGVPSRFSGSGSGTDFTLTISSLQPEDFATYYCQQSYTTPPTFGQGTKVEIKRTVAAPDIQMTQSPSSLSASVGDRVTITCRASQDVSTAVAWYQQKPGKAPKLLIYSASFLYSGVPSRFSGSGSGTDFTLTISSLQPEDFATTYYCQQSYTGTVTFGQGTKVEIKR | 2.72 nM
DVD484 (bispecific antibody, IgG1, HC linker short, LC linker long; also called DVD484H; DVD484L) VH: EVQLVESGGGLVQPGGSLRLSCAASGFTISDYWIHWVRQAPGKGLEWVAGITPAGGYTYYADSVKGRFTISADTSKNTAYLQMNSLRAEDTAVYYCARFVFFLPYAMDYWGQGTLVTVSSASTKGPEVQLVESGGGLVQPGGSLRLSCAASGFTFTDNWISWVRQAPGKGLEWVGYISPNSGFTYYADSVKGRFTISADTSKNTAYLQMNSLRAEDTAVYYCARDNFGGYFDYWGQGTLVTVSS VL: DIQMTQSPSSLSASVGDRVTITCRASQDVSTAVAWYQQKPGKAPKLLIYSASFLYSGVPSRFSGSGSGTDFTLTISSLQPEDFATYYCQQSYTTPPTFGQGTKVEIKRTVAAPSVFIFPPDIQMTQSPSSLSASVGDRVTITCRASQDVSTAVAWYQQKPGKAPKLLIYSASFLYSGVPSRFSGSGSGTDFTLTISSLQPEDFATTYYCQQSYTGTVTFGQGTKVEIKR | 4.84 nM

More lines, now with the values ahead:

EC50 | Binder
14.4 nM | DVD446 (bispecific antibody, IgG1, DVD-Ig, outer AB071 / inner AB069; HC linker short, LC linker short; also called DVD446H; DVD446L) VH: EVQLVESGGGLVQPGGSLRLSCAASGFTINASWIHWVRQAPGKGLEWVGAIYPYSGYTNYADSVKGRFTISADTSKNTAYLQMNSLRAEDTAVYYCARWGHSTSPWAMDYWGQGTLVTVSSASTKGPQVQLVQSGAEVKKPGASVKISCKASGYSFTAYYIHWVKQAPGQGLEWIGYISSYNGATNYNQKFKGRVTFTTDTSTSTAYMELRSLRSDDTAVYYCARDYDYDVGMDYWGQGTLVTVSS VL: DIQMTQSPSSLSASVGDRVTITCRASQVIRRSLAWYQQKPGKAPKLLIYAASNLASGVPSRFSGSGSGTDFTLTISSLQPEDFATYYCQQSNTSPLTFGQGTKVEIKRTVAAPDIVMTQSPDSLAVSLGERATISCRASESVDNYGISFMKWFQQKPGQPPKLLIYAASNQGSGVPDRFSGSGSGTDFTLTISSLQAEDVAVYYCQQSKEVPWTFGGGTKVEIKR
21.5 nM | DVD458 (bispecific antibody, IgG1, DVD-Ig, outer AB071 / inner AB069; HC linker long, LC linker short; also called DVD458H; DVD458L) VH: EVQLVESGGGLVQPGGSLRLSCAASGFTINASWIHWVRQAPGKGLEWVGAIYPYSGYTNYADSVKGRFTISADTSKNTAYLQMNSLRAEDTAVYYCARWGHSTSPWAMDYWGQGTLVTVSSASTKGPSVFPLAPQVQLVQSGAEVKKPGASVKISCKASGYSFTAYYIHWVKQAPGQGLEWIGYISSYNGATNYNQKFKGRVTFTTDTSTSTAYMELRSLRSDDTAVYYCARDYDYDVGMDYWGQGTLVTVSS VL: DIQMTQSPSSLSASVGDRVTITCRASQVIRRSLAWYQQKPGKAPKLLIYAASNLASGVPSRFSGSGSGTDFTLTISSLQPEDFATYYCQQSNTSPLTFGQGTKVEIKRTVAAPDIVMTQSPDSLAVSLGERATISCRASESVDNYGISFMKWFQQKPGQPPKLLIYAASNQGSGVPDRFSGSGSGTDFTLTISSLQAEDVAVYYCQQSKEVPWTFGGGTKVEIKR
1730 nM | DVD463 (bispecific antibody, IgG1, DVD-Ig, outer AB069 / inner AB071; HC linker short, LC linker long; also called DVD463H; DVD463L) VH: QVQLVQSGAEVKKPGASVKISCKASGYSFTAYYIHWVKQAPGQGLEWIGYISSYNGATNYNQKFKGRVTFTTDTSTSTAYMELRSLRSDDTAVYYCARDYDYDVGMDYWGQGTLVTVSSASTKGPEVQLVESGGGLVQPGGSLRLSCAASGFTINASWIHWVRQAPGKGLEWVGAIYPYSGYTNYADSVKGRFTISADTSKNTAYLQMNSLRAEDTAVYYCARWGHSTSPWAMDYWGQGTLVTVSS VL: DIVMTQSPDSLAVSLGERATISCRASESVDNYGISFMKWFQQKPGQPPKLLIYAASNQGSGVPDRFSGSGSGTDFTLTISSLQAEDVAVYYCQQSKEVPWTFGGGTKVEIKRTVAAPSVFIFPPDIQMTQSPSSLSASVGDRVTITCRASQVIRRSLAWYQQKPGKAPKLLIYAASNLASGVPSRFSGSGSGTDFTLTISSLQPEDFATYYCQQSNTSPLTFGQGTKVEIKR
9.22 nM | DVD472 (bispecific antibody, IgG1, HC linker long, LC linker long; also called DVD472H; DVD472L) VH: EVQLVESGGGLVQPGGSLRLSCAASGFTISDYWIHWVRQAPGKGLEWVAGITPAGGYTYYADSVKGRFTISADTSKNTAYLQMNSLRAEDTAVYYCARFVFFLPYAMDYWGQGTLVTVSSASTKGPSVFPLAPEVQLVESGGGLVQPGGSLRLSCAASGFTFTDNWISWVRQAPGKGLEWVGYISPNSGFTYYADSVKGRFTISADTSKNTAYLQMNSLRAEDTAVYYCARDNFGGYFDYWGQGTLVTVSS VL: DIQMTQSPSSLSASVGDRVTITCRASQDVSTAVAWYQQKPGKAPKLLIYSASFLYSGVPSRFSGSGSGTDFTLTISSLQPEDFATYYCQQSYTTPPTFGQGTKVEIKRTVAAPSVFIFPPDIQMTQSPSSLSASVGDRVTITCRASQDVSTAVAWYQQKPGKAPKLLIYSASFLYSGVPSRFSGSGSGTDFTLTISSLQPEDFATTYYCQQSYTGTVTFGQGTKVEIKR
2400 nM | DVD451 (bispecific antibody, IgG1, DVD-Ig, outer AB069 / inner AB071; HC linker long, LC linker long; also called DVD451H; DVD451L) VH: QVQLVQSGAEVKKPGASVKISCKASGYSFTAYYIHWVKQAPGQGLEWIGYISSYNGATNYNQKFKGRVTFTTDTSTSTAYMELRSLRSDDTAVYYCARDYDYDVGMDYWGQGTLVTVSSASTKGPSVFPLAPEVQLVESGGGLVQPGGSLRLSCAASGFTINASWIHWVRQAPGKGLEWVGAIYPYSGYTNYADSVKGRFTISADTSKNTAYLQMNSLRAEDTAVYYCARWGHSTSPWAMDYWGQGTLVTVSS VL: DIVMTQSPDSLAVSLGERATISCRASESVDNYGISFMKWFQQKPGQPPKLLIYAASNQGSGVPDRFSGSGSGTDFTLTISSLQAEDVAVYYCQQSKEVPWTFGGGTKVEIKRTVAAPSVFIFPPDIQMTQSPSSLSASVGDRVTITCRASQVIRRSLAWYQQKPGKAPKLLIYAASNLASGVPSRFSGSGSGTDFTLTISSLQPEDFATYYCQQSNTSPLTFGQGTKVEIKR
